According to paper PMC4028264:

Legend:
Assay in all cases: native gel or EMSA
[1] = target: HIV-1 strain R2 soluble gp140 envelope glycoprotein (uncleaved) (HIV-1 strain R2)
[2] = target: HIV-1 strain R2 gp140 fused to a modified GCN4 trimerization domain (HIV-1 strain R2 | not stated)
[3] = target: HIV-1 strain R2 gp140 with a 15 amino acid flexible linker between gp120 and the gp41 ectodomain, fu (HIV-1 strain R2 | not stated)

Q: What does the source list for “HIV-1 strain R2 soluble gp140 envelope glycoprotein (uncleaved) (domain or fragment)”?
A: percent dimer [1]: > 90%; stoichiometry N [1]: 2

Q: How did the stoichiometry N [2] turn out when “HIV-1 strain R2 gp140 fused to a modified GCN4 trimerization domain (domain or fragment)” was run?
A: 3

Q: How did the stoichiometry N [3] turn out when “HIV-1 strain R2 gp140 with a 15 amino acid flexible linker between gp120 and the gp41 ectodomain, fu (domain or fragment)” was run?
A: 3
